Legend:
[1] = target: LC3B-WT (mature, cleaved by ATG4B) (human, UniProt Q9GZQ8 1-120); test: EMSA; 1 mM Mg2+, 2 uM probe; EMSA: 40 mM Tris pH 8.0, 30 mM KCl, 1 mM MgCl2, 0.01% NP-40, 1 mM DTT, 30 C 1 h; FP: same buffer without NP-40, 100 nM RNA final (200 nM stock diluted 1:2), pro
LC3B-R/Q = LC3B-R/Q (human, UniProt Q9GZQ8 1-120, R68Q;R69Q;R70Q); test: as above

## AAUAAAAAUAAAAAUAAA (ssRNA) [Cy5-AAUAAAx3]
[1]
  binding result: binds
LC3B-R/Q
  binding result: no binding
